In patent US9085632B2, “Biological materials and uses thereof” (PEPTINNOVATE LIMITED, priority 2008, dated 2015):
“Also recorded” adds a separate entry of the source. Where two headings read alike, the source gives them in different places.

Key:
[1] = test system: ovalbumin challenged mice; type: in vivo; details: 24 h after repeated ovalbumin challenge, 10 μg intra-tracheal; for bronchial hyper-responsiveness to methacholine: FIG. 2; for recruitment of eosinophils to the airways (airways inflammation): percentage of eosinophils vs ovalbumin alone, FIG. 1; for levels of cytokines in BAL fluid (cytokine release in the lung): FIG. 3
Experimental: Allergic inflammation in the lung is induced by 2 intraperitoneal injections of 10 μg of ovalbumin (OVA) in 1 mg of alum with 7 days interval between them. Control animals receive alum only. On day 14, all animals are exposed to an aerosol of OVA for 25 minutes, once a day for 3 consecutive days. All measurements are performed 24 h after the last antigen challenge. […]

[2] = test system: ovalbumin challenged mice; details: previously demonstrated, Riffo-Vasquez et al. 2004; cited from earlier work
[3] = test system: spleen cells of C57Bl/6 mice; type: cell-based, C57BI/6 mice; details: FIG. 8; for IL-12 release compared with Cpn60.1 at lower concentrations: lower concentrations (0.001-0.1 μg/ml)
[4] = test system: ovalbumin challenged mice; type: in vivo; details: for levels of total IgE circulating in serum: 0.005 μg/mouse, FIG. 13; for recruitment of total cells to the airways / recruitment of eosinophils to the airways: intra-nasal; for recruitment of total cells to the airways: Cpn60.1 1 μg, FIG. 10; for recruitment of eosinophils to the airways: Cpn60.1 0.1 and 1 μg, peptide 4 0.005 μg, FIG. 11
[5] = test system: bone marrow dendritic cells; assay: IL-12 production by bone marrow dendritic cells pulsed with chaperonins; type: cell-based, Balb/c mice; details: 48 h; Cpn60.1 0.1-30 μg/ml, Cpn10 10 μg/ml; FIG. 5
Experimental: (§1) Bone marrow cells from Balb/c mice were collected and cultured for 6 days in complete Dulbecco's Modified Eagle Medium containing 8 ng/ml of mouse GM-CSF. On day 6 of culture, the cells were collected, re-plated for 1 hour for removal of adherent cells, washed and plated at […] in 6-wells plates for analysis of surface markers expression and transference experiments and at 10^5 cells/well in 96-wells plate for cytokine measurements. In other experiments, cells were incubated at 10^6 cells/well for 24 h with the chaperonins and then another further 24 h with LPS (10 ng/ml).

[6] = test system: bone marrow dendritic cells; assay: LPS-induced IL12 production by dendritic cells after chaperonin pre-incubation; type: cell-based, Balb/c mice; details: pre-incubation 24 hours, then LPS (10 ng/ml) further 24 h; FIG. 6
Experimental: as §1
Pre-incubation of DC's with Cpn60.1 but not Cpn10 for 24 hours inhibited IL12 production induced by LPS (FIG. 6).

[7] = test system: co-culture of dendritic cells and RD11.10 T cells; assay: IL4 release in dendritic cell / T cell co-culture; type: cell-based, mice; details: DC pre-treated 10 μg/ml 24 h, FIG. 7
Experimental: as §1
DC pre-treated with Cpn60.1 (10 μg/ml) or Cpn10 (10 μg/ml) for 24 h suppressed the release of IL4 from RD11.10 T cells in a DC/T cell co-culture. After 6 days of culture, cells were stimulated with anti-CD3 and anti-CD28 for further 24 hours and supernatants collected. IL5 and IL10 were not detected in this culture (FIG. 7).

[8] = test system: spleen cells collected from TLR4KO mice; assay: IL-12 release in spleen cells from TLR4KO mice; type: cell-based; details: FIG. 9
[9] = test system: spleen cells from TLR2KO mice; assay: IL-12 release in spleen cells from TLR2KO mice; type: cell-based; details: FIG. 9
CFA-treated rats = assay: Complete Freund's Adjuvant (CFA)-induced hyperalgesia; type: in vivo, male Wistar rats; details: 50 & 500 μg/kg subcutaneously for 7 days; compared to ibuprofen 100 mg/kg; FIGS. 14 and 15
Experimental: (§2) The effect of Cpn60.1 has been investigated in 2 models of pain, Complete Freund's Adjuvant (CFA)-induced hyperalgesia and Ultra Violet Burn-induced hyperalgesia. Mechanical hyperalgesia was measured using Von Frey filaments applied with increasing force to the hind paw. Thermal hyperalgesia was measured using the time taken to withdraw the hind paw from a heat source. Cpn60.1 (50 & 500 μg/kg) was chronically administered to male Wistar rats (200 g) subcutaneously for 7 days. Every alternate day behavioural responses to mechanical and thermal allodynia were recorded. After baseline recordings, CFA was injected in to the hind paw to induce hyperalgesia and behavioural tests were performed. […] Another model of hyperalgesia was tested, this time using UV burn to induce allodynia. Again, Cpn60.1 had little effect at inhibiting hyperalgesia compared to the group treated with ibuprofen (FIGS. 16 and 17).

UV-treated rats = assay: Ultra Violet Burn-induced hyperalgesia; type: in vivo, male Wistar rats; details: compared to the group treated with ibuprofen; FIGS. 16 and 17
Experimental: as §2

[10] = test system: human peripheral blood monocytes; assay: Human monocyte assay, TNF-alpha secretion (ELISA); type: cell-based; details: for LPS-induced TNF-alpha secretion: pre-treatment 1 hour, then LPS (1 ng/ml) 24 hours, FIGS. 18, 20
Experimental: We have established a human monocyte assay to compare the efficacy of Cpn60.1 and various peptide sequences of this protein. Human monocytes were obtained by density-dependent centrifugation from peripheral venus blood from healthy volunteers. Monocytes were then isolated and purified with cells adjusted to a density of 2×10^6 cells/ml which were incubated for 1 hour 30 minutes. The plates were then washed twice with Hanks solution. 0.9 ml of RPMI medium was then added to each well followed by polymyxin-B (5 μg/ml). 30 minutes later, 0.1 ml of Cpn at 0.0001-1000 ng/ml or peptides were added to the wells. Cells were then incubated at 37° C., 5% CO2 for 1 hour. The medium was removed and cells washed. 0.9 ml of medium was added to each well followed by 0.1 ml of LPS (1 ng/ml) and left to incubate for 24 hours. Supernatant was taken from each well and frozen for Enzyme Linked Immunosorbent Assay (ELISA).

LPS-treated mice = assay: LPS-induced neutrophil recruitment to the lung (non-allergic inflammation); type: in vivo, Female Balb/c mice
Experimental: Female Balb/c mice were pre-treated intranasally with Cpn60.1 (1 μg/ml) for 3 days in the absence or following pre-treatment with polymyxin B (5 μg/ml) to rule out any effect of LPS contamination. 30 minutes after the last dose of Cpn60.1, mice were treated with LPS (1 μg/ml). Neutrophil influx and TNF-alpha release in the lungs were determined by bronchoalveolar lavage 24 hours later.

[11] = test system: OVA-sensitized recipient mice; assay: Transfer of chaperonin pre-treated dendritic cells to OVA-sensitized recipient mice; type: in vivo; details: dendritic cells pre-treated in vitro 24 h with 10 μg/ml, given topically to lungs; FIG. 4
Experimental: as §1
The DC's were pre-treated in vitro for 24 h with Cpn10 (10 μg/ml) and then administrated topically to the lungs of OVA-sensitized recipient mice.

[12] = 24 h after repeated ovalbumin challenge
[13] = 24 h after repeated ovalbumin challenge, listed as Cpn60.1-peptide 4

In the case of “Cpn60.2: M. tuberculosis chaperonin polypeptide chaperonin 60.2”, the “bronchial hyper-responsiveness to methacholine” value (shortened to “bronchial hyper-responsiveness”) [1] is given as “not”, the “recruitment of eosinophils to the airways (airways inflammation)” value (“recruitment … (airways inflammation)” below) [1] is given as “not” and the “lung inflammation in a murine model of asthma” value (“lung inflammation” below) [2] is given as “not”.

With “DGSVVVNKVSELPAGHGLNVNTLSYGDLAAD (listed as Mycobacterium tuberculosis) [Peptide 4]” the “IL-12 release compared with Cpn60.1 at higher concentration” value ([3]; higher concentration (0.1-30 μg/ml), polymixin B) was “reduced effect in comparison to Cpn60.1”, the “IL-12 release compared with Cpn60.1 at lower concentrations” value ([3]; polymixin B) was “more effective than Cpn60.1” and the “levels of total IgE circulating in serum” value [4, 12] was “affected total IgE production”. The “levels of total IgE circulating in serum” value [4, 13] was “significantly inhibited”, the “levels of IL-5 in BAL fluid” value ([4]; 24 h after repeated ovalbumin challenge, FIG. 12) was “not caused by an interference with the production of IL-5” and the “levels of IL-5 in BAL fluid” value ([4]; 24 h after repeated ovalbumin challenge, FIG. 12, listed as Cpn60.1-peptide 4) was “not significantly inhibited”. The “recruitment of total cells to the airways” value (“recruitment of total cells” for short) [4, 12] was “inhibited”, the “recruitment of eosinophils to the airways” value [4, 12] was “significant reduction” and the “recruitment of eosinophils to the airways” value [4, 13] was “inhibited”.

For “LTTETVVVDKPAKAEDHDHHHGHAH (listed as Mycobacterium tuberculosis) [Peptide 6]”, the “IL-12 release compared with Cpn60.1 at lower concentrations” value ([3]; polymixin B) was “less potent effect”.

B1: Cpn60.1: chaperonin protein Chaperonin 60.1 of Mycobacterium tuberculosis, amino acid sequence shown in FIG. 25 (protein)
chain: MSKLIEYDETARRAMEVGMDKLADTVRVTLGPRGRHVVLAKAFGGPTVTNDGVTVAREIELEDPFEDLGAQLVKSVATKTNDVAGDGTTTATILAQALIKGGLRLVAAGVNPIALGVGIGKAADAVSEALLASATPVSGKTGIAQVATVSSRDEQIGDLVGEAMSKVGHDGVVSVEESSTLGTELEFTEGIGFDKGFLSAYFVTDFDNQQAVLEDALILLHQDKISSLPDLLPLLEKVAGTGKPLLIVAEDVEGEALATLVVNAIRKTLKAVAVKGPYFGDRRKAFLEDLAVVTGGQVVNPDAGMVLREVGLEVLGSARRVVVSKDDTVIVDGGGTAEAVANRAKHLRAEIDKSDSDWDREKLGERLAKLAGGVAVIKVGAATETALKERKESVEDAVAAAKAAVEEGIVPGGGASLIHQARKALTELRASLTGDEVLGVDVFSEALAAPLFWIAANAGLDGSVVVNKVSELPAGHGLNVNTLSYGDLAADGVIDPVKVTRSAVLNASSVARMVLTTETVVVDKPAKAEDHDHHHGHAH
For B1, the “bronchial hyper-responsiveness” value [1] was “reduced; also recorded: significantly inhibit”, the “levels of cytokines in BAL fluid (cytokine release in the lung)” value [1] was “inhibited; also recorded: significantly inhibit” and the “recruitment … (airways inflammation)” value [1] was “inhibited; also recorded: significantly inhibit”. For the same molecule, the “IL12 production by dendritic cells” value [5] was “produced IL12 in a dose-dependant manner; also recorded: induced the release of IL-12 in a dose dependent-manner”, the “IL12 production induced by LPS” value [6] was “inhibited” and the “levels of IL4 in DC/T cell co-culture” value ([7]; […]) was “suppressed”. For the same molecule, the IL-12 release ([3]; 0.001-30 μg/ml, 24 h, polymixin B 5 μg/ml) was “induce IL-12 release”, the “IL-12 response of TLR4KO spleen cells compared to wild type C57bl/6” value [8] was “reduced response; also recorded: significantly refractory” and the “IL-12 response of TLR2KO spleen cells” value [9] was “refractory”. The “recruitment of total cells” value ([4]; […]) was “significantly inhibited”, the “recruitment of total cells” value ([4]; […], listed as Cpn60) was “inhibited” and the “recruitment of eosinophils to the airways” value ([4]; […]) was “significant reduction”. The “recruitment of eosinophils to the airways” value ([4]; […], listed as Cpn60) was “inhibited”, the “levels of IL-5 in BAL fluid” value ([4]; mouse, in vivo) was “not significantly inhibited; also recorded: not caused by an interference with the production of IL-5” and the “CFA-induced hyperalgesia (mechanical and thermal)” value (CFA-treated rats) was “Neither dose of Cpn60.1 reduced CFA-induced hyperalgesia”. For the same molecule, the “UV burn-induced hyperalgesia (mechanical and thermal)” value (UV-treated rats) was “little effect”, the “TNF-alpha release induced by LPS, percent of control values” ([10]; Cpn60.1 vs Cpn60.1 peptides, FIG. 21) was “suppress” and the “concentration of maximum inhibition of LPS-induced TNF-α secretion” value ([10]; although not significant, FIG. 18) was 1 ng/mL. The “TNF-alpha secretion induced by the substance alone” value ([10]; no LPS) was “able to stimulate human monocytes to induce TNF-alpha secretion”, the “LPS-induced TNF-alpha secretion in the presence of polymyxin-B” value ([10]; polymyxin-B 5 μg/ml, FIG. 19) was “suppresses” and the “LPS-induced TNF-alpha secretion” value [10] was “suppresses; also recorded: inhibited TNF-alpha secretion at low doses”. The “TNF-alpha secretion in the lungs” value (LPS-treated mice; intranasal 1 μg/ml for 3 days, LPS 1 μg/ml, lavage 24 hours later, FIG. 24) was “not significantly attenuated”, the “LPS-induced neutrophilia (neutrophils recovered from lavage)” value (LPS-treated mice; intranasal 1 μg/ml for 3 days, LPS 1 μg/ml, lavage at 24 hours, FIG. 24) was “reduced LPS-induced neutrophilia; also recorded: suppression in neutrophilia” and the “neutrophil recruitment with the substance alone” value (LPS-treated mice; no LPS, FIG. 23) was “No neutrophil recruitment”. The “effect of polymyxin B pre-treatment on suppression of neutrophil recruitment” value (LPS-treated mice; polymyxin B (5 μg/ml)) was “made no difference” and the “lung inflammation” value [2] was “suppressed”.

B2: Cpn10: M. tuberculosis chaperonin polypeptide chaperonin 10 (protein, UniProt P9WPE5 2-100, looked up)
Co-chaperonin GroES: AKVNIKPLEDKILVQANEAETTTASGLVIPDTAKEKPQEGTVVAVGPGRWDEDGEKRIPLDVAEGDTVIYSKYGGTEIKYNGEEYLILSARDVLAVVSK
With B2 the “bronchial hyper-responsiveness” value [1] was “reduced; also recorded: significantly inhibit”, the “levels of cytokines in BAL fluid (cytokine release in the lung)” value [1] was “significantly inhibit” and the “recruitment … (airways inflammation)” value [1] was “inhibited; also recorded: significantly inhibit”. For the same molecule, the “eosinophils migration to the lung” value [11] was “significantly inhibited”, the “IL12 production by dendritic cells” value [5] was “induced low levels; also recorded: induced lower levels of IL-12 release in comparison to LPS and Cpn60.1” and the “IL12 production induced by LPS” value [6] was “not”. The “levels of IL4 in DC/T cell co-culture” value ([7]; 6 days co-culture, anti-CD3 and anti-CD28 24 hours) was “suppressed”, the “LPS-induced TNF-alpha secretion” value [10] was “does not suppress; also recorded: failed to inhibit” and the “lung inflammation” value [2] was “suppressed”.
